{"source": "paper PMC6078970", "about": "“Nonequilibrium self-assembly dynamics of icosahedral viral capsids packaging genome or polyelectrolyte” (Nature Communications, 2018)", "proteins": {"B1": {"name": "cowpea chlorotic mottle virus (CCMV) capsid protein, dimeric subunit (natural protein)", "chain": "RVVQPVIVEPIASGQGKAIKAWTGYSVSKWTASCAAAEAKVTSAITISLPNELSSERNKQLKVGRVLLWLGLLPSVSGTVKSCVTETQTTAAASFQVALAVADNSKDVVAAMYPEAFKGITLEQLTADLTIYLYSSAALTEGDVIVHLEVEHVRPTFDDSFTPVY", "notes": "capsid (coat) protein of cowpea chlorotic mottle virus, extracted from purified virions; 90 dimers make the T = 3 capsid; Protein as it stands in native virions; no tag; also called CCMV subunits; subunits; source: CCMV grown in blackeye cowpea leaves; capsid proteins extracted from purified virions (dialysis against 0.5 M CaCl2, centrifugation at 150,000 x g)"}}, "target": "the molecule itself", "assay": "SAXS (static); purified subunits alone, pH 7.5, ionic strength 0.5 M; radius of gyration 33 Å"}
{"protein": "B1", "values": [{"measurement": "stoichiometry N", "result": 2}]}
